Measurements from US20240207429A1 (PROFOUNDBIO US, published 2024).

B1: F1 (antibody, V domains shown)
VH: EVQLLESGGGVVQPGRSLRLSCAASGFTFSSYGMHWVRQAPGKGLEWVAVISYDGSNKYYADSVKGRFTISRDNSKNTLYLQMNSLRAEDTAVYYCARPRAYYGAYGSSFDYWGQGTQVTVSS
VL: EIVMTQSPSSVSASVGDRVAITCRASQGISSWLAWYQQKPGKAPKLLIYAASSLQSGVPSRFSGSGSGTDFTLTISSLQPEDFATYYCQQSYSTPLTFGGGTKVDIK
notes: also called clone F1; anti-FOLR1 antibody F1
B2: F40 (antibody, V domains shown)
VH: EVQLLESGGGVVQPGRSLRLSCAASGFTFSSYAMHWVRQAPGKGLEWVAVISYDGSNKYYADSVKGRFIISRDNSKNTVYLQMNSLRAEDTAVYYCARPTYVFTYTGSSFDYWGQGTQVTVSS
VL: DIQVTQSPSSLSASLGDTVSITCRASRGLTDSVAWYQQKPGQAPKLLIYAASTLQSGVPSRFGGSGSGSYFTLTITSLQPEDVATYYCQNYKSAPWTFGQGTKVEIK
notes: also called clone F40; anti-FOLR1 antibody F40
B3: F100 (antibody, V domains shown)
VH: EVQLLESGGGVVQPGRSLRLSCAASGFTFSSYGMHWVRQAPGKGLEWVAVISYDGSNKYYADSVKGRFTISRPNSKNTLYLQMNSLRAEDTAVYYCARPRAYYGAYGSSFDYWGQGTQVTVSS
VL: EIVMTQSPSSVSASVGDRVAITCRASQGISSWLAWYQQKPGKAPKLLIYAASSLQSGVPSRFSGSGSGTDFTLTISSLQPEDFATYYCQQSYSTPLTFGGGTKVDIK
notes: also called clone F100; anti-FOLR1 antibody F100
B4: F138 (antibody, V domains shown)
VH: EVQLLESGGGVVQPGRSLRLSCAASGFTFSSYGMHWVRQAPGKGLEWVAVISYDGSNKYYADSVKGRFTISTHNSKNTLYLQMNSLRAEDTAVYYCARPRAYYGAYGSSFDYWGQGTQVTVSS
VL: EIVMTQSPSSVSASVGDRVAITCRASQGISSWLAWYQQKPGKAPKLLIYAASSLQSGVPSRFSGSGSGTDFTLTISSLQPEDFATYYCQQSYSTPLTFGGGTKVDIK
notes: also called clone F138; anti-FOLR1 antibody F138
B5: F48 (antibody, V domains shown)
VH: EVQLLESGGGVVQPGRSLRLSCAASGFTFSSYGMHWVRQAPGKGLEWVAVISYDGSNKYYADSVKGRFTISRDNSKNTLYLHMNSLRAEDTAVYYCARPRAYYGAYGSSFDYWGQGTQVTVSS
VL: EIVMTQSPSSVSASVGDRVAITCRASQGISSWLAWYQQKPGKAPKLLIYAASSLQSGVPSRFSGSGSGTDFTLTISSLQPEDFATYYCQQSYSTPLTFGGGTKVDIK
notes: also called clone F48; anti-FOLR1 antibody F48
B6: F112 (antibody, V domains shown)
VH: EVQLLESGGGVVQPGRSLRLSCAASGFTFSSYGMHWVRQAPGKGLEWVAVISYDGSNKYYADSVKGRFTISRHNSKNTLYLQMNSLRAEDTAVYYCARPRAYYGAYGSSFDYWGQGTQVTVSS
VL: EIVMTQSPSSVSASVGDRVAITCRASQGISSWLAWYQQKPGKAPKLLIYAASSLQSGVPSRFSGSGSGTDFTLTISSLQPEDFATYYCQQSYSTPLTFGGGTKVDIK
notes: also called clone F112; anti-FOLR1 antibody F112
B7: F131 (antibody, V domains shown)
VH: EVQLLESGGGVVQPGRSLRLSCAASGFTFSSYGMHWVRQAPGKGLEWVAVISYDGSNKYYADSVKGRFTISRANSKNTLYLQMNSLRAEDTAVYYCARPRAYYGAYGSSFDYWGQGTQVTVSS
VL: EIVMTQSPSSVSASVGDRVAITCRASQGISSWLAWYQQKPGKAPKLLIYAASSLQSGVPSRFSGSGSGTDFTLTISSLQPEDFATYYCQQSYSTPLTFGGGTKVDIK
notes: also called clone F131; F131 mAb
B8: F8 (antibody, V domains shown)
VH: EVQLLESGGGVVQHGRSLRLSCAASGFTFSSYGMHWVRQAPGKGLEWVAVISYDGSNKYYADSVKGRFTISRDNSKNTLYLQMNSLRAEDTAVYYCARPRAYYGAYGSSFDYWGQGTQVTVSS
VL: EIVMTQSPSSVSASVGDRVAITCRASQGISSWLAWYQQKPGKAPKLLIYAASSLQSGVPSRFSGSGSGTDFTLTISSLQPEDFATYYCQQSYSTPLTFGGGTKVDIK
notes: also called clone F8; anti-FOLR1 antibody F8
B9: F123 (antibody, V domains shown)
VH: EVQLLESGGGVVQPERSLRLSCAASGFTFSSYGMHWVRQAPGKGLEWVAVISYDGSNKYYADSVKGRFTISRANSKNTLYLQMNSLRAEDTAVYYCARPRAYYGAYGSSFDYWGQGTQVTVSS
VL: EIVMTQSPSSVSASVGDRVAITCRASQGISSWLAWYQQKPGKAPKLLIYAASSLQSGVPSRFSGSGSGTDFTLTISSLQPEDFATYYCQQSYSTPLTFGGGTKVDIK
notes: also called clone F123; anti-FOLR1 antibody F123
B10: F26 (antibody, V domains shown)
VH: EVQLLESGGGVVQRGRSLRLSCAASGFTFSSYGMHWVRQAPGKGLEWVAVISYDGSNKYYADSVKGRFTISRDNSKNTLYLPMNSLRAEDTAVYYCARPRAYYGAYGSSFDYWGQGTQVTVSS
VL: EIVMTQSPSSVSASVGDRVAITCRASQGISSWLAWYQQKPGKAPKLLIYAASSLQSGVPSRFSGSGSGTDFTLTISSLQPEDFATYYCQQSYSTPLTFGGGTKVDIK
notes: also called clone F26; anti-FOLR1 antibody F26

How the values were obtained:
[1] = biological target: T1, Human FOLR1 Protein His Tag (ACRO-FO1-H52H1) (human, UniProt P15328 25-233); test: ELISA, HEK293 supernatant on coated antigen
T1 construct: not shown: His tag
T1 sequence (P15328 25-233 limits assumed): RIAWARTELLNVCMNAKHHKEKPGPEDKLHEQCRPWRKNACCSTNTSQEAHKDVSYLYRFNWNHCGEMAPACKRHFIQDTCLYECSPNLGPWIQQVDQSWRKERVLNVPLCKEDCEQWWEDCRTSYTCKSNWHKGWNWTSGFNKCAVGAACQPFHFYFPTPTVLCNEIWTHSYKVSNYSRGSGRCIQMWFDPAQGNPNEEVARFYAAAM

[2] = biological target: T1, Human FOLR1 Protein His Tag …; test: ELISA, supernatant diluted 5x
[3] = biological target: T2, Cynomolgus/Rhesus macaque FOLR1 Protein, His Tag (ACRO, F01-C52H8) (cynomolgus, UniProt A0A2K5U044 25-233); test: ELISA, supernatant diluted 5x
T2 construct: also called cynomolgus FOLR1 protein; not shown: His tag
T2 sequence (A0A2K5U044 entry or part of it): as the sequence (P15328 25-233 limits assumed) above, with I2T, W4R, R37K, A146P, H171Y counted along it

[4] = biological target: T1, Human FOLR1 Protein His Tag …; test: ELISA, supernatant diluted 25x
[5] = biological target: T2, Cynomolgus/Rhesus macaque FOLR1 …; test: ELISA, supernatant diluted 25x
[6] = biological target: T1, Human FOLR1 Protein His Tag …; test: ELISA, supernatant diluted 1x
[7] = biological target: T2, Cynomolgus/Rhesus macaque FOLR1 …; test: ELISA, supernatant diluted 1x

Binder | OD450 [1] | OD450 [2] | OD450 [3] | OD450 [4] | OD450 [5] | OD450 [6] | OD450 [7]
B1 | 2.43 | 1.45 | 1.26 | 1.18 | 0.994 | 1.66 | 1.38
B2 | 2.39 | 0.382 | 1.11 | 0.163 | 0.924 | 0.811 | 1.35
B3 | 2.3 | 1.53 | 1.03 | 1.18 | 0.875 | 1.61 | 1.16
B4 | 2.41 | 1.69 | 1.14 | 0.827 | 1.17 | 1.64 | 1.14
B5 | 2.54 | 1.59 | 1.04 | 1.29 | 0.908 | 1.56 | 1.15
B6 | 2.35 | 1.42 | 1.21 | 1.17 | 0.933 | 1.56 | 1.26
B7 | 2.35 | 1.52 | 1.27 | 1.38 | 1.09 | 1.61 | 1.2
B8 | 2.45 | 1.65 | 1.28 | 1.31 | 1.06 | 1.67 | 0.896
B9 | 2.32 | 1.47 | 1.3 | 1.33 | 1.07 | 1.72 | 1.36
B10 | 2.43 | 1.51 | 1.21 | 1.48 | 1.02 | 1.64 | 1.24
